Measured values reported in PMC9825189.

Molecular target: Csx30 (purified, for ITC) (Candidatus 'Scalindua brodae')
Assay: ITC

Substance: RpoE (purified, for ITC) (natural protein)
- stoichiometry N: 1
